Numbering of substitutions follows the chain as printed.
B1: anti-TAT194 monoclonal antibody R4203 (antibody, V domains shown)
VH: EVQLQQSGPELVKPGASMKISCKASGYSFTGFTMNWVKQSHGKNLEWIGLINPYNGVTNYNQKFRGKATLTVDESSSTAYMDLLSLTSEDSAVYYCARHYSFAMDYWGQGTSVTVSS
VL: DIVLTQSPASLAVSLGQRATISCRASESVDGYGSSFMHWYQQKPGQPPKLLIYRTSNLESGIPARFSGSGSTTDFTLTINPVEADDVATYYCQQNSEDRTFGGGTKLEIKR
notes: Monoclonal antibody from a mouse hybridoma; kappa VL
B2: anti-TAT194 monoclonal antibody R4204 (antibody, V domains shown)
VH: QVQLQQSGAELAKPGTSVKMSCKASGYTFTTYWMHWIKQRPGQGLEWIGYINPSTGYSEYNQKFKDKATLTADRSSSTAYMQLSSLTSEDSTVYYCARWRFYGSTYGMDYWGQGTSVTVSS
VL: QIVLTQSPALMSAFPGEKVTLTCSASSSVTYMYWYQQKPRSSPKPWIYLTSKLASGVPSRFSGSGSGTSFSLTITSMEAEDAATYYCQQWTGNPLTFGAGTKLELKR
notes: as for B1
B3: anti-TAT194 monoclonal antibody R4212 (antibody, V domains shown)
VH: DVQLQESGPGLVAPSQSLSITCTVSGFSLSRYSVHWVRQPPGKGLEWLGMIWLGGSTDYNSALKSRLSISKDISKSQVFLKMNSLQTDDTAMYYCARNLDSRGFAHWGQGTLVTVSA
VL: DVLMTQTPLSLPVSLGDQASISCRSSQSIVHSNGNTYLEWYLQKPGQSPKLLIYKVSNRFSGVPDRFSGSGSGTDFTLKISRVEAEDLGVYYCFQGSHVPPTFGGGTKLEIKR
notes: as for B1
B4: anti-TAT194 monoclonal antibody R4208 (antibody, V domains shown)
VH: QVHLQQSGSELRSPGSSVKLSCKDFDSEVFPIAYMSWVRQKPGHGFEWIGDILPNIGRTIYGEKFEDKATLDADTVSNTAYLELNSLTSEDSAMYYCGRSITRAWFAYWGQGTLVTVSV
VL: DIQMTQSPSSLSASLGERVSLTCRASQEISGYLSWFQQKPDGTIKRLIYAASTLDSGVPKRFSGSRSGSDYSLTISSLASEDFADYFCLQYAGNPFTFGSGTKLEIKR
notes: as for B1
B5: anti-TAT194 monoclonal antibody R4209 (antibody, V domains shown)
VH: EVNLEESGGGLVQPGGSMKLSCVASGFTFSNYWMNWVRQSPEKGLEWVADISLKSNNYGTHYAESVNGRFTISRDDSTSSVYLQMNNLRAEDTGIYYCAVYYYGVKFYYFVLGYWGQGTSVTVSS
VL: DIVMTQSHKFMSTSVGDRVSITCKASQDVSTAVAWYQQKPGQSPKLLIYWGSTRHTGVPDRFTGVGSGTDYSLTISSVQAEDLALYYCQQHYNIPWTFGGGTKLEIKR
notes: as for B1
B6: anti-TAT194 monoclonal antibody R4205 (antibody, V domains shown)
VH: QVQLKESGPGLVKPSQSLSLTCTVTGYSITSDYVWNWIRQFPGNKLEWMGYIHYSGGTSYNPSLKSRISITRDTSKNQFFLHLNSLTTEDTATYYCARGNYDWAFAYWGQGTLVTVSA
VL: DVQITQSPSYLAASPGETITINCRASKSISKYLAWYQDKPGKTNKLLISSGSTLQSGIPSRFSGSGSGADFTLTISSLEPEDFAMYYCQQHNEYPWTFGGGTKLEIKR
notes: Monoclonal antibody from a mouse hybridoma; kappa VL; also called anti-RET murine monoclonal antibody clone 4205
B7: anti-TAT194 monoclonal antibody R4206 (antibody, V domains shown)
VH: DVQLQESGPGLVKPSQSLSLTCTVTGFSITSDYAWNWIRQFPGNKLEWMAYITYSGDTGYNPSLKSRISVTRDTSKNQFFLQLSSVTTEDTATYYCARGNYDWVFAYWGQGTLVTVSA
VL: B6 VL with D38E, S49Y, A69T, H91Y, N92I
notes: as for B1
B8: anti-TAT194 monoclonal antibody R4207 (antibody, V domains shown)
VH: B7 VH
VL: B6 VL with D38E, S49Y, A69T, H91Y, N92I
notes: as for B1

The binders below were run against T1, TAT194 polypeptide as used in the BIAcore analysis (human, UniProt P07949 29-635, limits assumed) (assay: standard BIAcore analysis).
T1 construct: The construct used for the BIAcore analysis (extracellular domain, tag, fusion, isoform) is not described; also called RET
For B1, the Kd was 0.1 nM.
In the case of B2, the Kd is reported as 169 nM.
Work on B3 yielded a Kd of 105 nM.
Work on B4 yielded a Kd of 1.25 nM.
Work on B5 yielded a Kd of 2.55 nM.
For B6, the Kd was 0.18 nM.
B7 was tested, and the Kd was 0.34 nM.
B8 was tested, and the Kd was 0.54 nM.

From patent US20150098946A1 (Genentech, published 2015)
